This note sets out measurements from US20070178098A1.

The target in experiment [1] is Fc-IL6Ralpha-IL6 (human IL-6Ralpha and IL-6; mouse Fc). Nature of the experiment: cell-based or functional assay.
Another experiment addresses human IL-6 (human) (UniProt P05231). Nature of the experiment: cell-based or functional assay.

Fc-IL6Ralpha-IL6 (human IL-6Ralpha and IL-6; mouse Fc), sequence (chain, as listed by the source limits assumed): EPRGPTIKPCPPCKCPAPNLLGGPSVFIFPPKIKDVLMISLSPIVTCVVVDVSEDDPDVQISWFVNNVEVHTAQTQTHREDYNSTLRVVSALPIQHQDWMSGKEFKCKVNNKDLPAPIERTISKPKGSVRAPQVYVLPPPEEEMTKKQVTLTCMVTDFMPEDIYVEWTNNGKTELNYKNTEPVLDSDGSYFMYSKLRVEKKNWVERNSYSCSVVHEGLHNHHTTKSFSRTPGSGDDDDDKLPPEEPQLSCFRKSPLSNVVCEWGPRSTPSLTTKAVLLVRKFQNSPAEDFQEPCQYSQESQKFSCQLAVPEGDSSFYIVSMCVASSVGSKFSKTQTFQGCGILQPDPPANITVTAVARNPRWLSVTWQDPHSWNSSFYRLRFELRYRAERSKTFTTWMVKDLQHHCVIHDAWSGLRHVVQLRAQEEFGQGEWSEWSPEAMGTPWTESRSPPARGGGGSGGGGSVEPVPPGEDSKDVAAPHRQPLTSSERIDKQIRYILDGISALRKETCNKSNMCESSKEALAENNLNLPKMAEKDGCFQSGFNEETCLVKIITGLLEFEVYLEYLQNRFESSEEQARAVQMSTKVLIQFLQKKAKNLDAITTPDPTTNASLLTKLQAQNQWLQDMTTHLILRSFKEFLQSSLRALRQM
human IL-6 (human), sequence (P05231 30-212 limits assumed): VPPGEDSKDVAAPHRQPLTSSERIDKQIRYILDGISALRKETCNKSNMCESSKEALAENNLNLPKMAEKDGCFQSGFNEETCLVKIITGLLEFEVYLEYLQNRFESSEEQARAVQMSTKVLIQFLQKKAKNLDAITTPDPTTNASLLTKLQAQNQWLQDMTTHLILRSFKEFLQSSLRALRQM

B1: CNTO-328 (antibody, INN chains, looked up, V domains shown)
VH: EVQLVESGGKLLKPGGSLKLSCAASGFTFSSFAMSWFRQSPEKRLEWVAEISSGGSYTYYPDTVTGRFTISRDNAKNTLYLEMSSLRSEDTAMYYCARGLWGYYALDYWGQGTSVTVSS
VL: QIVLIQSPAIMSASPGEKVTMTCSASSSVSYMYWYQQKPGSSPRLLIYDTSNLASGVPVRFSGSGSGTSYSLTISRMEAEDAATYYCQQWSGYPYTFGGGTKLEIK
For the molecule B1, in experiment [1], the 8 Hours % Inhibition of haptoglobin secretion in mice given Fc-IL6Rα-IL6 was found to be 12%, the 24 hours % Inhibition of haptoglobin secretion in mice given Fc-IL6Rα-IL6 is -3%, the Haptoglobin Inhibition IC50 (HepG2 cells stimulated with IL-6Rα-IL-6) was more than 0.333 µg/mL and the LP-1 Proliferation IC50 (stimulated with Fc-IL6Ralpha-IL6) amounted to 1.61 µg/mL. In the experiment with human IL-6 (human), the Haptoglobin Inhibition IC50 (HepG2 cells stimulated with IL-6) turned out to be 0.00519 µg/mL and the LP-1 Proliferation IC50 (stimulated with IL-6) was 0.0101 µg/mL.
